Measured values published in patent US9713649 (CLEVELAND CLINIC FOUNDATION, dated 2017).
Primed or numbered codes have the meaning given here. Where no end group is shown, it is not given here. [ ]: non-standard residue; d: D form. The star is where a group is joined. MCC = 4-(N-maleimidomethyl)cyclohexane-1-carbonyl, from SMCC, O=C1C=CC(=O)N1C[C@H]1CC[C@H](C(=O)*)CC1; NOTA(2S-Bn(4-NHCS)) = O=C(O)CN1CCN(CC(=O)O)C[C@H](Cc2ccc(NC(=S)*)cc2)N(CC(=O)O)CC1; Amc = N-aminomethyl cyclohexanoic acid; ZJ = urea ligand Cys-C(O)-Glu; Ahx = NCCCCCC(=O)O; E′E = Glu-urea-Glu

Target: T1, Prostate specific membrane antigen (PSMA) (UniProt Q04609 1-750, limits assumed)
T1 construct: whole, on cells
Assay: competitive binding on LNCaP or PC3-PIP cells; displacement of 12 nM N-[N-[(S)-1,3-dicarboxypropyl]carbamoyl]-S-[3H]-methyl-L-cysteine, scintillation counting
Procedure: Briefly, LNCaP or PC3-PIP cells (5×10^5) were incubated with different concentrations of ligands in the presence of 12 nM N—[N—[(S)-1,3-dicarboxypropyl]carbamoyl]-S-[^3H]-methyl-L-cysteine in a total volume of 300 µL for 1 hour at 37° C. The mixture was centrifuged at 3,000 g for 5 min at 4° C., then washed three times with 500 µL of cold PBS. Finally, 4 mL of EcoLume™ cocktail (MP Biomedicals) was added, and radioactivity was counted by scintillation counter. The concentration required to inhibit 50% of binding was determined (IC$50$) by GraphPad Prism 3.0.
Binding affinities of new compounds to PSMA.

T1 sequence (Q04609 whole entry): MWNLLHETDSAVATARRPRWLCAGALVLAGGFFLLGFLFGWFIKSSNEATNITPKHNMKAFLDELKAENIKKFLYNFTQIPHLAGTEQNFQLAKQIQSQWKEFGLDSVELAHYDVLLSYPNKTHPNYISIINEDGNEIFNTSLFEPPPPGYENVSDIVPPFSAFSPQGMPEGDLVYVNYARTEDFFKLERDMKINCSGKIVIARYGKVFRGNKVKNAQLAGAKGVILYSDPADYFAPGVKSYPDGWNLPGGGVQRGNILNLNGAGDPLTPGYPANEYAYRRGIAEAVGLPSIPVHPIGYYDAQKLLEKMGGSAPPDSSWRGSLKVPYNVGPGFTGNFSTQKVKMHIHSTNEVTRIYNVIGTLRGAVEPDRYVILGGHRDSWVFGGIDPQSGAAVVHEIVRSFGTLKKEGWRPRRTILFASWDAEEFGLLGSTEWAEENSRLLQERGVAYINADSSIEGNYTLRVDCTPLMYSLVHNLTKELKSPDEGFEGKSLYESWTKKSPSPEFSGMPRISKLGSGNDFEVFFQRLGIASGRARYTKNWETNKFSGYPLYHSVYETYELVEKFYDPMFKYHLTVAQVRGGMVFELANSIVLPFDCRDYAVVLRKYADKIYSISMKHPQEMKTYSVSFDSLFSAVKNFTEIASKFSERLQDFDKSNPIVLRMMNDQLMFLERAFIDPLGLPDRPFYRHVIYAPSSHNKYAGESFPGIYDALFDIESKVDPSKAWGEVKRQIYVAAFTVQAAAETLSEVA

| IC50 [nM] | Binder |
| --- | --- |
| 2.5 | {ZJ-MCC}-[Ahx]YYYG (Synthetic urea-ligand peptide conjugate, unlabelled) [ZJ-MCC-Ahx-YYYG (Compound 2)] |
| 4.6 | {E′E-Amc}-[Ahx][dE][dE][dE]YK(NOTA(2S-Bn(4-NHCS)))-NH2 (Tested unlabelled; also called E′EAmc-Ahx-dGlu-dGlu-dGlu-Tyr-Lys(Bn-NOTA)-NH2) [E′EAmc-Ahx-dEdEdEYK(Bn-NOTA)-NH2 (Compound 4)] |
| 4.3 | {E′E}-[Ahx]EEEYK(NOTA(2S-Bn(4-NHCS)))-NH2 (Tested unlabelled; also called E′E-Ahx-Glu-Glu-Glu-Tyr-Lys(Bn-NOTA)-NH2) [E′E-Ahx-EEEYK(Bn-NOTA)-NH2 (Compound 5)] |
| 7 | {E′E-Amc}-[Ahx][dE][dE][dE]GYGGGC-NH2 [E′EAmc-Ahx-dEdEdEGYGGGC-NH2 (Compound 3)] |
